These results are taken from publication PMC5866929.

The target in data set [1] is His6-LacI-51 (UniProt P03023 51-360, del1-50). As to the kind of experiment: filter binding.
In data set [2] the target is T1, His6-LacI-59 (UniProt P03023 59-360, del1-58). The data set is described as follows: filter binding.
Data set [3] deals with wild-type LacI (UniProt P03023 1-360). The data set is described as follows: EMSA. (In general: In EMSA bound probe runs differently from free probe, usually more slowly.)
Chain of wild-type LacI (P03023 whole entry): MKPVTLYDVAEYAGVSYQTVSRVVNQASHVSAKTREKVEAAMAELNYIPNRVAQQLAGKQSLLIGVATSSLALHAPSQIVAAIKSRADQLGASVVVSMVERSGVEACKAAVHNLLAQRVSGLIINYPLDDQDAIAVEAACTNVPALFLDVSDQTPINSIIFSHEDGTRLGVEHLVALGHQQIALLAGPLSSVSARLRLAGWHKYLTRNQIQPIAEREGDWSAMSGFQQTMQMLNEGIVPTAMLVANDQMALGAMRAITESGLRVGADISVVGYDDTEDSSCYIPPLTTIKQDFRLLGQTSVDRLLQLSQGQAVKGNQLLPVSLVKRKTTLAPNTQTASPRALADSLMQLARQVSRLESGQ
The target of data set [4] is T1, His6-LacI-59. As to the kind of experiment: EMSA.

T1 sequence (P03023 59-360, stated change not applied): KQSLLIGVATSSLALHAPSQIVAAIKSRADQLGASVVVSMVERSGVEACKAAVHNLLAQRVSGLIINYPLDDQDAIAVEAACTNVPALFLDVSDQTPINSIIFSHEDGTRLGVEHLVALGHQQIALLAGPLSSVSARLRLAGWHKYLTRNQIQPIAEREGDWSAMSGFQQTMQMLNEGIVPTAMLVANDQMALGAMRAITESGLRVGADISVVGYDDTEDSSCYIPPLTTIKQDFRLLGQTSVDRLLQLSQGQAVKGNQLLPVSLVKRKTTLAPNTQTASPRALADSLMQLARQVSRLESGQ
Chain of His6-LacI-51 (P03023 51-360, stated change not applied): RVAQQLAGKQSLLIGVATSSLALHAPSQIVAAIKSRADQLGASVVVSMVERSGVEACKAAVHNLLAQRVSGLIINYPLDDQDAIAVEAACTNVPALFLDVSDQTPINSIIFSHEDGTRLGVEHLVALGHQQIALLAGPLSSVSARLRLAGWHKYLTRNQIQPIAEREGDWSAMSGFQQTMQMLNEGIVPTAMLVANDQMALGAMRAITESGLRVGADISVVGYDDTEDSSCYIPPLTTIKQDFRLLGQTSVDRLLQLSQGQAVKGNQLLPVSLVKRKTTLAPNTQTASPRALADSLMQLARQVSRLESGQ

B1: Oscram 40 bp (dsDNA)
DNA 1: GTCATAAGTATCGTGAACTGCTGAGAGTGCTAGCGTTAGT
DNA 2: ACTAACGCTAGCACTCTCAGCAGTTCACGATACTTATGAC
As for B1, the “apparent K (half saturation)” value in data set [1] is approximately 5 µM. Moreover, in data set [2], the binding result is “no binding”.

B2: O1 operator 40 bp (dsDNA)
DNA 1: TGTTGTGTGGAATTGTGAGCGGATAACAATTTCACACAGG
DNA 2: CCTGTGTGAAATTGTTATCCGCTCACAATTCCACACAACA
For B2, the binding result is on record as “binds” in data set [3] and “no binding” in data set [4].
